Experimental findings from the supplement of paper PMC10598134 are described below.

The data set is described as follows: collision cross section of modified peptide (TIMS, N2, iRT-aligned); higher = larger / more extended gas-phase ion. Summed up:
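On a timsTOF Pro/HT (dda-PASEF, nitrogen, ~2.4 mbar), synthetic peptide pools were analysed after a 120-min nanoflow C18 separation at 60 °C and identified in MaxQuant. Three reference ions served for 1/K0 calibration, with run-wise alignment to the median iRT peptide deviation. Collision cross section comes from the Mason-Schamp equation, using the most abundant feature per charge state averaged over 1–3 technical replicates.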

Where [1] appears, read: charge state: 2, modification: Butyryl.
Setting [2] is: charge state: 2, modification: Methyl (K).
[3] abbreviates: charge state: 3, modification: Methyl (K).
Where [4] appears, read: charge state: 3, modification: Methyl (R).
Setting [5] is: charge state: 2, modification: Formyl.
Setting [6] is: charge state: 3, modification: Formyl.
The mark [7] stands for this setting: charge state: 2, modification: GlyGly (K).
The mark [8] stands for this setting: charge state: 3, modification: GlyGly (K).
[9] abbreviates: charge state: 2, modification: Acetyl (K).
Setting [10] is: charge state: 3, modification: Acetyl (K).
The mark [11] stands for this setting: charge state: 2, modification: Malonyl.
Where [12] appears, read: charge state: 2, modification: Crotonyl.
The mark [13] stands for this setting: charge state: 2, modification: Glutarylation.
Setting [14] is: charge state: 3, modification: Glutarylation.
[15] abbreviates: charge state: 2, modification: Trimethyl (K).
The mark [16] stands for this setting: charge state: 3, modification: Trimethyl (K).
Setting [17] is: charge state: 2, modification: Hydroxyproline.
The mark [18] stands for this setting: charge state: 2, modification: Phospho (Y).
Where [19] appears, read: charge state: 2, modification: Succinyl.
The mark [20] stands for this setting: charge state: 3, modification: Succinyl.
[21] abbreviates: charge state: 2, modification: Dimethyl (K).
Where [22] appears, read: charge state: 3, modification: Dimethyl (K).
Where [23] appears, read: charge state: 3, modification: hydroxyisobutyryl.

± gives the standard deviation.

For the substance SLKLNTAEDAK [_SLK(Butyryl)LNTAEDAK_], the collision cross section under setting [1] stood at 378.05 ± 1.5 Å².
As to “GFCFITYTDEEPVKK [_GFCFITYTDEEPVK(Methyl (K))K_]”, the collision cross section is, setting by setting: under setting [2], 460.43 ± 0.33 Å²; under setting [3], 513.09 ± 2.7 Å².
With TPNLYIYSKK [_TPNLYIYSK(Methyl (K))K_], the collision cross section by setting is: under setting [2], 377.12 ± 0.28 Å²; under setting [3], 428.93 ± 5.2 Å².
The substance “LTEKELAEAASK [_LTEK(Methyl (K))ELAEAASK_]” had a collision cross section under setting [2] of 392.99 ± 1 Å² and a collision cross section under setting [3] of 445.12 ± 4.9 Å².
In turn, “SGGYGGSRDYYSSR [_SGGYGGSR(Methyl (R))DYYSSR_]” gave a collision cross section under setting [4] of 475.52 ± 2 Å².
Take “DAIHFYNKSLAEHR [_DAIHFYNK(Formyl)SLAEHR_]”: the collision cross section runs as follows: under setting [5], 447.82 Å²; under setting [6], 498.82 ± 2.2 Å².
In the case of LEQVEKELLR [_LEQVEK(GlyGly (K))ELLR_], the collision cross section by setting is: under setting [7], 394.68 ± 0.37 Å²; under setting [8], 460.7 ± 1.1 Å².
With LGNDFHTNKR [_LGNDFHTNK(Acetyl (K))R_], the collision cross section under setting [9] was 373.86 ± 3.5 Å² and the collision cross section under setting [10] is reported as 444.24 ± 4 Å².
With LAEEENKAK [_LAEEENK(Formyl)AK_], the collision cross section under setting [5] came out at 342.64 ± 1.5 Å².
On to “PASGAGAGAGAGKR [_PASGAGAGAGAGK(Malonyl)R_]”, for which the collision cross section under setting [11] stood at 352.42 ± 0.026 Å².
Turning to ASNAAVKLAESK [_ASNAAVK(Crotonyl)LAESK_], the collision cross section under setting [12] is listed as 375.99 ± 0.26 Å².
On to “VYIASSSGSTAIKK [_VYIASSSGSTAIK(Gluratylation)K_]”, for which the collision cross section reads like this: under setting [13], 420.03 ± 1.5 Å²; under setting [14], 512.2 ± 1 Å².
With “SGNLTEDDKHNNAK [_SGNLTEDDK(Malonyl)HNNAK_]”, the collision cross section under setting [11] turned out to be 417.21 ± 1.6 Å².
On to KFGVLSDNFK [_K(Propionyl)FGVLSDNFK_], for which the collision cross section (charge state: 2, modification: Propionyl) is 374.07 ± 0.33 Å².
Take “AGPNASIISLKSDK [_AGPNASIISLK(Trimethyl (K))SDK_]”: the collision cross section under setting [15] worked out at 422.03 ± 0.65 Å² and the collision cross section under setting [16] amounted to 457.38 ± 2.4 Å².
For “VDIDVPDVNIEGPDAKLK [_VDIDVPDVNIEGPDAK(GlyGly (K))LK_]”, the collision cross section is, setting by setting: under setting [7], 469.92 ± 1.9 Å²; under setting [8], 504.15 ± 0.79 Å².
Substance LDHLAEKFR [_LDHLAEK(Gluratylation)FR_] yielded a collision cross section under setting [13] of 375.69 ± 0.099 Å² and a collision cross section under setting [14] of 446.6 ± 1.7 Å².
PGLQGPR [_P(Hydroxyproline)GLQGPR_]: the collision cross section under setting [17] turned out to be 288.12 ± 3.8 Å².
In turn, DYSVTANSK [_DY(Phospho (Y))SVTANSK_] showed a collision cross section under setting [18] of 332.04 ± 0.69 Å².
As for “SITHSTVGSKGEK [_SITHSTVGSK(Acetyl (K))GEK_]”, the collision cross section runs as follows: under setting [9], 391.66 ± 1.8 Å²; under setting [10], 440.5 ± 4 Å².
As to “GEPGQGLRGLQGPPGK [_GEPGQGLRGLQGPP(Hydroxyproline)GK_]”, the collision cross section by setting is: under setting [17], 408.26 ± 1.5 Å²; (charge state: 3, modification: Hydroxyproline) 445.73 ± 1.3 Å².
Consider “SDSGKPYYYNSQTK [_SDSGK(Malonyl)PYYYNSQTK_]”, for which the collision cross section under setting [11] is listed as 422.4 ± 0.57 Å².
Turning to “ANEKTESSSAQQVAVSR [_ANEK(Formyl)TESSSAQQVAVSR_]”, the collision cross section reads like this: under setting [5], 431.82 ± 1.4 Å²; under setting [6], 523.66 ± 4.2 Å².
On to “VGLQVVAVKAPGFGDNR [_VGLQVVAVK(Trimethyl (K))APGFGDNR_]”, for which the collision cross section amounted to 473 Å² under setting [15] and 497.24 ± 1.6 Å² under setting [16].
Take “VGTASVLQPVKK [_VGTASVLQPVK(Trimethyl (K))K_]”: the collision cross section is, setting by setting: under setting [15], 394.06 ± 0.62 Å²; under setting [16], 455.76 ± 1.5 Å².
For the substance “GYGVIFANGNR [_GY(Phospho (Y))GVIFANGNR_]”, under setting [18], the collision cross section came out at 364.42 ± 0.064 Å².
In the case of “ISSNFSSIIAEKLR [_ISSNFSSIIAEK(Succinyl)LR_]”, the collision cross section runs as follows: under setting [19], 432.83 ± 0.84 Å²; under setting [20], 512.74 Å².
Turning to “AAINQKLIETGER [_AAINQK(Dimethyl (K))LIETGER_]”, the collision cross section was found to be 413.1 ± 1.4 Å² under setting [21] and 468.56 ± 2.6 Å² under setting [22].
With VGEFSGANKEK [_VGEFSGANK(Crotonyl)EK_], the collision cross section under setting [12] worked out at 370.98 ± 0.8 Å².
With “DLSTVEALQNLKNLK [_DLSTVEALQNLK(Succinyl)NLK_]”, the collision cross section under setting [19] was determined as 483.86 ± 0.78 Å² and the collision cross section under setting [20] is listed as 537.21 Å².
As to “DASTLQSQKAEGTGDAK [_DASTLQSQK(Gluratylation)AEGTGDAK_]”, the collision cross section by setting is: under setting [13], 440.54 ± 1.5 Å²; under setting [14], 515.28 ± 0.85 Å².
With IISSIEQKEENK [_IISSIEQK(Formyl)EENK_], the collision cross section under setting [5] came to 398.84 ± 0.2 Å².
With “SLGEPAAGEGSAKR [_SLGEPAAGEGSAK(Trimethyl (K))R_]”, the collision cross section runs as follows: under setting [15], 404.92 ± 19 Å²; under setting [16], 462.02 ± 2.7 Å².
On to “ALASIDSKLNQAK [_ALASIDSK(GlyGly (K))LNQAK_]”, for which the collision cross section was 417.48 ± 0.98 Å² under setting [7] and 469.2 ± 1.3 Å² under setting [8].
Regarding “IVFSGNLFQHQEDSKK [_IVFSGNLFQHQEDSK(Methyl (K))K_]”, the collision cross section reads like this: under setting [2], 490.37 Å²; under setting [3], 529.21 ± 1.6 Å².
With SFEDIHQYR [_SFEDIHQY(Nitro (Y))R_], the collision cross section by setting is: (charge state: 2, modification: Nitro (Y)) 368.15 ± 0.17 Å²; (charge state: 3, modification: Nitro (Y)) 453.82 ± 1.2 Å².
On to “TGGTQTDLFTCGKCK [_TGGTQTDLFTCGK(Gluratylation)CK_]”, for which the collision cross section under setting [13] worked out at 442.58 Å².
For the setting “charge state: 2, modification: Citrullination (R)”, “LGILPVGRGK [_LGILPVGR(Citrullination (R))GK_]” had a collision cross section of 340.52 ± 0.26 Å².
SDDESSQKDIK [_SDDESSQK(Acetyl (K))DIK_]: under setting [9], the collision cross section stood at 374.03 ± 0.38 Å².
Turning to “SSFAYKDQNENR [_SSFAYK(Dimethyl (K))DQNENR_]”, the collision cross section under setting [21] is given as 406.82 ± 0.47 Å² and the collision cross section under setting [22] was 455.28 ± 0.51 Å².
As for “VNIGQGSHPQKVK [_VNIGQGSHPQK(Propionyl)VK_]”, the collision cross section (charge state: 3, modification: Propionyl) came out at 485.17 ± 0.74 Å².
For the substance SSFAYKDQNENR [_SSFAYK(Succinyl)DQNENR_], the collision cross section worked out at 400.73 ± 0.25 Å² under setting [19] and 453.96 Å² under setting [20].
Substance LLEEEDSKLK [_LLEEEDSK(Malonyl)LK_] yielded a collision cross section under setting [11] of 379.46 ± 1.1 Å².
In the case of “FLQEFYQDDELGKK [_FLQEFYQDDELGK(hydroxyisobutyryl)K_]”, the collision cross section (charge state: 2, modification: hydroxyisobutyryl) is recorded as 452.81 ± 0.81 Å² and the collision cross section under setting [23] is 512.84 ± 1.6 Å².
On to TLDEILQEKK [_TLDEILQEK(Butyryl)K_], for which the collision cross section reads like this: under setting [1], 383.05 ± 1.3 Å²; (charge state: 3, modification: Butyryl) 449.71 ± 2 Å².
With “HELQANCYEEVKDR [_HELQANCYEEVK(hydroxyisobutyryl)DR_]”, the collision cross section under setting [23] came out at 504.98 ± 2.9 Å².
On to “SGATAGAAGGRGK [_SGATAGAAGGR(Methyl (R))GK_]”, for which the collision cross section is recorded as 366.66 ± 1.5 Å² (charge state: 2, modification: Methyl (R)) and 448.31 ± 3.9 Å² under setting [4].
